The results in this text go back to patent US20240400627A1.

Assay [1] concerns the target Ganab (glucosidase II alpha-subunit), endogenous, mouse kidney (mouse) (UniProt Q8BHN3). The assay can be described thus: anti-HA immunoprecipitation from DTSSP-crosslinked crude mitochondria (contain MAMs), LC-MS/MS proteomics.
For assay [2], the target named is Nicotinamide Nucleotide Transhydrogenase (NNT), endogenous, mouse kidney (mouse) (UniProt Q61941). The assay can be described thus: anti-HA immunoprecipitation from DTSSP-crosslinked crude mitochondria, LC-MS/MS proteomics, n=3 per group.
Nicotinamide Nucleotide Transhydrogenase (NNT), endogenous, mouse kidney (mouse), sequence (Q61941 44-1086 limits assumed): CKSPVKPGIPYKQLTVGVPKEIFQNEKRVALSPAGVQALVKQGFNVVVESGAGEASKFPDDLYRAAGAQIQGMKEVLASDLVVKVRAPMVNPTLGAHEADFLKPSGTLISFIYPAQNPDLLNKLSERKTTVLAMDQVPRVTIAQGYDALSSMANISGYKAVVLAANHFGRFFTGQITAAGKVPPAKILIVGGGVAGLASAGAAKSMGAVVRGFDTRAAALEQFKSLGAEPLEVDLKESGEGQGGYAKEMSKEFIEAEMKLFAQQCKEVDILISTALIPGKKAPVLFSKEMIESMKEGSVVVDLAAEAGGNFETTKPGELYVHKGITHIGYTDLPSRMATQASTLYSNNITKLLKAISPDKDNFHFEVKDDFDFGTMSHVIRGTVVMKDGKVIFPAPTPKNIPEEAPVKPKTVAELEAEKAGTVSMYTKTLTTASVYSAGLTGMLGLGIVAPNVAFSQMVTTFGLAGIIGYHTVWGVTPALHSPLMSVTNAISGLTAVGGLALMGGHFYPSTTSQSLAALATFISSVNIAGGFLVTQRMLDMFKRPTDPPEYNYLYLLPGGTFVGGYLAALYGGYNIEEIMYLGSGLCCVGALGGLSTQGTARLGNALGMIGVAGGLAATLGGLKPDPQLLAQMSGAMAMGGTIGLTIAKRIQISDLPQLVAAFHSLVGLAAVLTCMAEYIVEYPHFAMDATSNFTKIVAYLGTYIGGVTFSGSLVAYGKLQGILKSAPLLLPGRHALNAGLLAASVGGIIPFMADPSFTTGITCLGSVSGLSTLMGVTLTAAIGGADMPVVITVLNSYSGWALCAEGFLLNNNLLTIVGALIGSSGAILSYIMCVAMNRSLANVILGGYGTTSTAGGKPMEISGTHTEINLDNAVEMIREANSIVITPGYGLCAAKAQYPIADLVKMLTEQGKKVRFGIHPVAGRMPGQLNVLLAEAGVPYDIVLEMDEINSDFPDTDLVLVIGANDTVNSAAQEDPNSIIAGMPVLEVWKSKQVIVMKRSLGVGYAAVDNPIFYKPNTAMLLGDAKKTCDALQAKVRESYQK

3FLAG-PC1-3HA (PC1 tagged with a 3xFLAG epitope at its N-terminus and a 3xHA sequence at its C-terminus, Pkd1F/H-BAC mouse) and its HA-tagged fragments (150-kDa CTF; PC1-CTT-3HA fragments of 17-37 kDa, sequence (O08852 3041-4293): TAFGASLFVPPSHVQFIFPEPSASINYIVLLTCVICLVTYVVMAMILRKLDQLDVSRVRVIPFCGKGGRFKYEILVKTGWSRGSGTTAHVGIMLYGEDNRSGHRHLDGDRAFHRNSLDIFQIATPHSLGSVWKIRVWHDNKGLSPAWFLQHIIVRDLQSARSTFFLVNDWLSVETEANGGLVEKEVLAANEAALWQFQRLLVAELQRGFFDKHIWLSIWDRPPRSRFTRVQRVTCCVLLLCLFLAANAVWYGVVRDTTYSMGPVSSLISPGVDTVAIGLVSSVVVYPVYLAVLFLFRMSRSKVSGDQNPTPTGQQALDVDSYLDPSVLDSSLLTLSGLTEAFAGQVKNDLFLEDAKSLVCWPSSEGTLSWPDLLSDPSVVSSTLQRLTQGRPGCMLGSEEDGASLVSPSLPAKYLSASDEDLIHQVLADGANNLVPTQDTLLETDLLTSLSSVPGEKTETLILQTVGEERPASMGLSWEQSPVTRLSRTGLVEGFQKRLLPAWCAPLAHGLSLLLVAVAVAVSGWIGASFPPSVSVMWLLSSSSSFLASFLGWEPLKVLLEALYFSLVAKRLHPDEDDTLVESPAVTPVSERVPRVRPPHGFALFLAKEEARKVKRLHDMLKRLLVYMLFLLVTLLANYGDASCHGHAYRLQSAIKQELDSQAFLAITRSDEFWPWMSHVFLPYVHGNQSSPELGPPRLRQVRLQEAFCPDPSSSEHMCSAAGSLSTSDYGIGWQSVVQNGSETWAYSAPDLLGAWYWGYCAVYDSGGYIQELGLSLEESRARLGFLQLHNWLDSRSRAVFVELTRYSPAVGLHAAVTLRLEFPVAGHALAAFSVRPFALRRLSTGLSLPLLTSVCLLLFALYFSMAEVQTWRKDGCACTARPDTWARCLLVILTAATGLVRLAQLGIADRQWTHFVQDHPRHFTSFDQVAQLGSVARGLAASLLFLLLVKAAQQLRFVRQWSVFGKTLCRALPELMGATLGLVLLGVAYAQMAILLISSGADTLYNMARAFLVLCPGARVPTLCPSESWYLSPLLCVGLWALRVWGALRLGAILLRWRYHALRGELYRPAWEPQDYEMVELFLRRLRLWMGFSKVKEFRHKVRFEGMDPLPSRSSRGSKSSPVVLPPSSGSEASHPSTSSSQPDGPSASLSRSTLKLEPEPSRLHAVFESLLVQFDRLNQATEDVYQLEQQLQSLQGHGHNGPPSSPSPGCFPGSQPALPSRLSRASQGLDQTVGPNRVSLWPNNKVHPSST
Ganab (glucosidase II alpha-subunit), endogenous, mouse kidney (mouse), sequence (Q8BHN3 33-944 limits assumed): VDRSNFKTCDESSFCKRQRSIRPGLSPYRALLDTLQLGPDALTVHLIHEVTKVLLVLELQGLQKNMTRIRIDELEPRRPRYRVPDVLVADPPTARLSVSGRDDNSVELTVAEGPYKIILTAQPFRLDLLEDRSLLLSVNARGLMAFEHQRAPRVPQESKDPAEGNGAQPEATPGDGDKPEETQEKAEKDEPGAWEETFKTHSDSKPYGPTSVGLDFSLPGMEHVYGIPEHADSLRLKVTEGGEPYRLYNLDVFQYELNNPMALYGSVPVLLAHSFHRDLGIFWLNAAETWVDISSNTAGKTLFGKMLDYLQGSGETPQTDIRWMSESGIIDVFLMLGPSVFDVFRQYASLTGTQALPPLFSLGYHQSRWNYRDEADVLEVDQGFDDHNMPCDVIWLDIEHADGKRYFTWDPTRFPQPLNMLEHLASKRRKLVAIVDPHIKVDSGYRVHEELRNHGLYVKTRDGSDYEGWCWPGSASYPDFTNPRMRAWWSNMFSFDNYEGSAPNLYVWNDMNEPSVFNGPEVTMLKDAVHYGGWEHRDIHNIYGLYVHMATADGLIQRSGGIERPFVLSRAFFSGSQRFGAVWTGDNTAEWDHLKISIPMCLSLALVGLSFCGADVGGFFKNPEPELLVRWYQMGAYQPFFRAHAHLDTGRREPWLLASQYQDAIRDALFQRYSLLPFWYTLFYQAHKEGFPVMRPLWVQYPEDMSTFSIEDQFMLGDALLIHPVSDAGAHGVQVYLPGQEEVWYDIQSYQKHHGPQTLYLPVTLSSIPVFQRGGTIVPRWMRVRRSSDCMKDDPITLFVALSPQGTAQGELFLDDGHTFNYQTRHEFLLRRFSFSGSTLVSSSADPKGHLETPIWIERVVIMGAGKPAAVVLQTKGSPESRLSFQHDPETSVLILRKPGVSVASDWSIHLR

In the case of “3FLAG-PC1-3HA (PC1 tagged with a 3xFLAG epitope at its N-terminus and a 3xHA sequence at its C-terminus, Pkd1F/H-BAC mouse) and its HA-tagged fragments (150-kDa CTF; PC1-CTT-3HA fragments of 17-37 kDa) (from UniProt O08852 3041-4293)”, in assay [1], the fold enrichment in immunoprecipitates against WT was 4 fold. The fold amount of NNT co-immunoprecipitated against control WT immunoprecipitates in assay [2] was greater than 16 fold.
